Experimental data published in the DeepSol protein solubility set.

experiment: soluble on expression in E. coli; label from the status in PepcDB or PDB records

Soluble on expression in E. coli, not soluble:
MAHHHHHHMPCEGCGLSEAAMQCPTCKKLDMPPSYFCSQACFKEHWADHKLKHTQSALPTIPTMTEAAMNAFNFTGSLRPGRITPRRAVPSHIPRPDYANRADGLSPAEEKDRGAKVRVYNLQSLHDDSKETADIQRVKKVCRLSREVLDIATAAVRPGVTTDEIDRIVHEATIERDMYPSPLNYYNFPKSVCTSVNEVICHGIPDSRGLEEGDIVNIDVSSYLNGFHGDLNETVFVGKPDADSVRLVHAAYESLYAGIKVVKPEALYKHVGDAIEACAVQYGCSVVRAYTGHGVGHLFHTAPTVCHYANNKSLGMMRPGHVFTIEPMINLGTWQDVTWPDNWTSTTRDGKRSAQFEHTMVVTNDGAELFTDWTDGIPTYQKQLEGWNIPLPSPSNGVAH
MAHHHHHHMPDDRRRASRTDDALVAHRPADSASPVERRTRVDPRTHTKSLYQRGRDGSEMYASYYNSNDDPAFQERFNRHSNGNAFVQSAQFTYVSHGGCGGRNHTVVKERQRPVVVEEPDDADRHEASTDSGNNANVHAKHKDKEKRRSSKQDPIVEEPDSEDDYNDADSRAYRRGGKKGEFGSHPDALEFWRDPWGMESIMAEMMQPPLGFGDAFPFTSRRAPAQRRLKSPSVSNESKWQLSPHTRGGVMSSPFTGDLFGTGGPESPFRMMEAMQYHMHQQRAAMFGGVDPFRHFM
MAHHHHHHMPIHQYEGWSYERLRQQRNRAHFLLEDPYRYVTVLLISKPGRPEELKCIDSPCYHAAGPLGEGDIVEIEDLLCLRCPWHRYLVNIENGEEILLRVDPASAQGAGIVGRQAALPTYPMHFTDPSAEGVTVVHGEKVQRVHRAWLEEATGILSIEVAEEAVMRQHPVKSDKPAGNVKNGGICMQIFDIKLRGLDKL
MAHHHHHHMPTYVGKEAPFFKAEAVFGDNSFGEVNLTQFIGKKYVLLYFYPLDFTFVCPSEIIALDKALDAFHERNVELLGCSVDSKYTHLAWKKTPLAKGGIGNIKHTLLSDITKSISKDYNVLFDDSVSLRAFVLIDMNGIVQHLLVNNLAIGRSVDEILRIIDAIQHHEKYGDVCPANWQKGKVSMKPSEEGVAQYLSTL
MAHHHHHHMQIGLAGCSSSLHTSPSSGSAAGSGFYGARGQEAAASATVNSSGANGLCAGATMSSPSATPTLPPLPSTMDEPVDLFPLTPSVSMLQRHSKRSGRLLNESETMQEKHGQEYRFLVPWLAYAIDCTIAAHEVLRQKHGIPAHVSSPASPSANTLNGATDVKRSSRGSANGDPTYADTAGGSSGSGQAALPSPQAELNAFSTREVPAISVHDYLKRIVKYTYVSPSVLVCGCLYLDRLLCMHPCMLLHPYNVFKLFLTSTRMASKIMDTRTLNNHDFSVVGGVTNDDLNALEFLMVELLQNRLYFSRDTFDEYCRPLRLQAAHLTEEASDWGAETAMETPVETRSGVQHQPTRPFLARCNGSNTRSRRSSILSQNEYSVSIASQSGVSPLRSASRPAFPPSASTARSISVDTESIGPARAPASRGGSASTSAPRHPLGTSYSPALPHVPHTAANGGSSPALGAMGGLSGRGASGEDMLRVATHTNSIYQSSNGVWTGQTPPDSVTVLVGVEERGDERARSISLSAPRCGATTSWDATGRPSRLLAASTSTMAGLCTAALNGGRGGYESSPNVCAAPTYNRASASSSRGITASAEDFGAGSMVISYSDRTPTRRAFSHASREGIALPPVVCSGRSERSASVIGVAAQGQRLPPPPDQPRV
MAHHHHHHMQMEEKQAFFVESVDGRKFKMVIRGDLGKLSVAKIRRYLKSYGVPENQLLLAGNRVLEDAMLGEQFGLENEGVLHLREPTTVQHLAPAAVPSTAQSRTQLQQKPELSYEPQSAWRETRYEPAAHDARQMQREIERLQRQVEAAEARNADLEHQLEQVAESSAPYPPRGGA
MAHHHHHHMQQSSLVRRNVFHYTTVLTACTRAGQMDAAMMVFRQMKANKVKPNVYTYTTLINGCANAEKLDLALRIFAEMRLVEVPPNVKTMTALISVCSRCGQWKKGFQVLDQCEDLFIAPNALTYTAAMDGCRRAGVCTPAIALLEARMTDPSQVRPNEVTYNTVLGACAAAKDHKAALRVYARMVADGYEPIEYTRELLREVFRGTSLDGLADKLMVRVRTSKWEAYVPDSDPATALRAAQEGG
MAHHHHHHMQYQRAALVIASPALTQREVEFTKSAWLAGLRPDQRTAQQMREVSVEFPLLSRDVVVVRCGGSVVTAAIATALVEPTPQRPKHGLLHFSVRRLHTERDSPAADGSTQKNLVAFLERLVRTGGVIDTAGLCVLPGQKVWSLTVDVTIMNDEGNCNDAAVWAVIALLMHHRRPELTVRGSSVIVHPPHEREPVPLSVQHTPLPFTFAITMAPTEREKALNHQRALSATGSSSGPQPSSGVGNSIDTASAFAIDGTSPQPLGVVVDPTTAESLAAASSIVVAINAEGQVCTVVKAEGCSIHLKDLNACIEAAGTLAPRVLDLIKVAMEAHDERRKTAMKGQFAWAQKRSGVGKVEQACVKKIKTET
MAHHHHHHMREKTTSAATPMRCRKELAATLTRTRNSPRTPVTFELATERGLHNFSRRGPRVRAKSSIAVHAATASPLSLLEQTLWTEIEQLNAATNRLRERILEVKREFSADAIAAVTGGEPLPVEARTGGLFRNPPKQRGQNSKDEPPYAVTFTPSHSQKKAANVRLQFTSPRKTPMKENDSSVLTSLAMFEYTPQNDDHREGARPTENRNVLQELKRDETFETGTPVHLSEAATMGGPFVVDLQKSDHGAANNTAEKPTELSTSVDSARESAKHLLLQANMMGVEQDLNHYMSDLLAIQRDTLDAQKRGLIDPNDSSVRELRLGIRDELNACRARILTLESLQTSLSAGVATKKTIS
MAHHHHHHMRFVFRRLLPASTAAVAAPPSLLSMRGAPSFVHPPAEEAIGKDVRATPANWVTAYVLPEVITEQEEKTLLDFSEPWFERLSYNDGHMDGLIHHYKEFYRSYAAITQAAETGSDAGLNMPHANLEVDLPLVSEALARAHDLAQTYLPCIPIDDRVHFLRLAGSGFIRAHVDESRNSTGIVAGLCLNAGRVMTLTHPAYPGERVELMLAPRCLYILIGRARYDWAHSVDWVGDDDEHIRRIQKSLAVEGTPIRFDGAETPYRRSDRTAIIFRGVSPMTLLVRRMRQRG
MAHHHHHHMRNGPKVLIALGNELKRGAASHQCKGDVARMYVNYLRQRYSMDEWNHVSNVNSFICEKNNIILIKPVTSLEKNSGLAIKNILNYLNCEDLKNVCIILPDLYRSIGKFKYKSYTKIYEKLGPDFYNILNSNIINNVLCNHFLQLCIGVSNYPNETKNAVAIALQECLSDGELKKIFKTFQLAEEYFHKKIMNGKVITTNYIHFKEKYPAMEPQKSFRRSTASRRYILDVYRHMYK
MAHHHHHHMRRCFKLQAPPGVLSILSDLAQPRTSTSYQELLRNSHLPAQPLPFLPPPRWAAELSRVLHRTFPDVVQHHHTRFLQVFVHPSFTTAAGVSGTMQPLVAVGESLLERIGGLWILATFESTRREEYASLLALLTSDTALCRVLRDHWRLEHMVLTDASADLFSRQRLSSTKGLVCWLSSHGNVNGAQSLPEPFGAGCVKAMVAAVLLEHGNDAAEHFVKSEVLPYVL
MAHHHHHHMRTHKTHAYIQAHCLCDFYLTYCAGWVGAIKADGSGQPREPSNGVFGCVRDYIFHQMLDAVHGSSKVFFCDAHAAAVLNCSLRLHDLMERGVTLLEDLMAPRQPIMSSFTPYFFAVEDACVSCVVEDWMAKVPYRDVHIFALGCAPHRSPQQLPRSRIAPRVMRFKEMMLDFTATEALVFHPNMQNGLPQLLSPLSPPT
MAHHHHHHMRVIIQRVKNAALSVIKEESKETEKQLELFSEIKNGIICFVGIHKNDTWKDAMYIIRKCLNLRLWSDGNKSWDKSVKDLNYEILFVSQFTLFANTKKGNKPDFHLAKEPKEALAMYNKMVEQFAKDYNHEKIKTGKFGCYMNIQVTNDGPVTIFIDSHDVNLDN
MAHHHHHHMSAAGRLIRIRKKSKWIDRRSKRIPHNGKDVWQFGEQPSCALCHVRFRFKQDYEAHKESELHQNRLRWVETMKWWEEIGEPHHQQHAASEWEWFRQRVLPAKAAAMGLSEEDAARELRRAVMHETPRWYSRIQPPNARSEIKEPRDQRWPSSPKW

Soluble on expression in E. coli, soluble:
MAHHHHHHMPLCASIPATVDTDTNTRALYLDDLDKCMKNFSSALASTMNAYQNLLTAFDQVAQVYGNVAQECGDEVRKPVGEFRDGMRDLKDKGGFETFNHEIHVGTIAVIEPVKSDLKKALKSLKCLRLKQKEYDAVRYDLEQTEKSYAKKNKPLVTSSSYKKTLAKRDKVKTSYDASREAFGEEINALQATTKSVLLQSLNNYLHCTAAFCGQLEATMNGYRTDVDHHGSTTFTNDQMDKLKEKAEAESMARRAKRKSEASNPFQTGYDVTSNNSHRNLPSVDDGLYQKKDSLVDTESVNRYPNAEFAPPMQNGGDDNFTLREQYDDGAPGDADDVNPLVDANNDE
MAHHHHHHMPTSSWRAEHLLIKHSGSRNPVSRRTGQPTTISYEEAVTELQKWCQSINDGKVTFEEAARQRSDCSSYARGGDLGVFGPGEMMKPFEDATKSLEVGQVSGIVVTDSGVHIIKRIA
MAHHHHHHMQQASAAASDEWRTKFGGGGASHDWQASKGNFTNQEFESYWGQKWPNWLKTEKATYPNAANKKWLEQNPPPKQGPAQAKTAKQLAVYAEEAAALARTYTEGITAAHGRELKAIKTALRAALYGTNKKTARAFRR
MAHHHHHHMQTLDINNSFAVPFDEDPQDAGVWFFDTNYAQEMFAMHKRVLPKVKVVGWYSSGPTIQPNDMLLHLLVADRFCLNPVYCVVNTDPNNKGVPVRAYTTVQGREGTRSLEFRNIPTHLGAEEAEEIGIEHLLRDLTDSTITTLSTQVQERELSLVHLCKVLQQIEEYLKDVGNAVMPISEDVLEVLQELISLQPEIYARRSSTEMIRHTNDEAIATFLAAIARCIGALHGVIMNRRKLARELQEIKDRRARAAETRLENEKMKIEEAAKEKDTNQA
MAHHHHHHMQVPPLTELSPSISVHLLLGNPSGATPTKLTPDNYLMVKNQYALSYNNSKGTANWVAWQLNSSWLGNAERQDNFRPDKTLPAGWVRVTPSMYSGSGYARGHIAPSADRTKTTEDNAATFLMTNMMPQTPDNNRNTWGNLEDYCRELVSQGKELYIVAGPNGSLGKPLKGKVTVPKSTWKIVVVLDSPGSGLEGITANTRVIAVNIPNDPELNNDWRAYKVSVDELESLTGYDFLSNVSPNIQTSIESKVDN
MAHHHHHHMRKIYIAGPAVFNPDMGASYYNKVRELLKKENVMPLIPTDNEATGALDIRQKNIQMIKDCDAVIADLSPFRGHEPDCGTAFEVGYAAALNKMVLTFTSDRRNMREKYGSEVDKDNLRVEGFGLPFNLMLYDGVEVFDSFESAFKYFLANFPSK
MAHHHHHHMRLLRLSTKVGMESNNAALRAHLLSLRGTEPVGDPKNPLHVQLQIHDGHRNTLLSHTKELYVTALQHHPETFVNVIPLLPLSDDESSPSNDGGASNDSITLFNAASMTADRGFTPLFSHVALGGTFDRLHAGHKLLLTTALFYASKSLRIGVTLESMLKKKTYGSYIEPFETRCKLVSEFLYSVRRDIDVTVVGITEPSGGTNRDAEIEALVVSPETAGVLASINDERASYGLKPLECIQIPYVSAEGDGRVSSTELRRRLHENASGAN
MAHHHHHHMRSLPNIIVTGVPGVGKTTLCEELVEVINKELQEGQQAEPANQMKHLNLSKVIKEERLYEEFDDQLDATIYSNDMVNEKMEKLKLENGGYIIDFHDVDFLEQKELIDHIFLLTTSTNKLYERLEKRNYAKEKIKNNIECEIFQVIKEDILTFYNDPSIFDELGNNDMEQYESNLQLIKGWVLSWAKSGEALPR
